The record followed here is FireProtDB (doi:10.1021/bi050502v).

For the data set the following is noted: Locusta migratoria, pH 7.4, CD, Na2HPO4 KH2PO4 10 mM 2 mM, NaCl 127 mM, reversible: yes, whole UniProt chain shown.

B1: Apolipophorin-3b wild type, P10762 (protein)
chain: MNTLLAVLMLAVAAQARPDAAGHVNIAEAVQQLNHTIVNAAHELHETLGLPTPDEALNLLTEQANAFKTKIAEVTTSLKQEAEKHQGSVAEQLNRFARNLNNSIHDAATSAQPADQLNSLQSALTNVGHQWQTSQPRPSVAQEAWAPVQSALQEAAEKTKEAAANLQNSIQSAVQKPAN
In the case of B1, where the note is “25 °C, GdnHCl”, the “denaturant midpoint (higher = more stable)” value amounted to 0.51 M and the unfolding free energy stood at 2.05 kcal/mol. For the same protein, the Tm (Thermal) came to 53 °C.
